Source: patent US20210063414A1, “METHODS FOR PREVENTING AND/OR TREATING BONE LOSS CONDITIONS BY MODULATING IRISIN” (Dana-Farber Cancer Institute, Inc., priority 2018, published 2021)

Test system: sclerostin
Assay: Irisin injection in mice: sclerostin mRNA in osteocyte-enriched bones and plasma sclerostin protein (ELISA)
Assay type: in vivo
Conditions: irisin IP daily for 6 days
Method: 8 weeks old mice were injected daily with indicated dose of irisin for 6 days. […] were collected and treated with collagenase to yield osteocyte-enriched bones. Sclerostin mRNA level from osteocyte-enriched tibia was analyzed by qPCR (FIG. 7A). Cyclophilin was used as a house-keeping gene. Plasma was collected to analyze the circulating sclerostin protein level by ELISA assay (FIG. 7B). Data are represented as mean±SEM. For FIG. 7A and FIG. 7B, n=5 animals/group. * indicates p<0.05, and *** indicates p<0.001.
Certain materials and methods were used to generate the results described herein. For example, the data shown in FIG. 1A resulted from MLO-Y4 (an osteocyte-like cell line) cells treated with the indicated concentration of irisin and hydrogen peroxide for 4 hours. Cells were stained with Hoechst 33342 (ThermoFisher Scientific, catalog number H3570) and Eth-D1 (ThermoFisher Scientific, catalog number E1169) and analyzed to determine the percentage of cell death using ImageJ. […] Co-precipitated irisin was analyzed by immunoblot analysis against flag tag (Sigma Aldrich, catalog number A8592). The data shown in FIGS. 5A and 5B were generated from MLO-Y4 cells treated and analyzed as in the experiments used to generate the data shown in FIG. 2D, except that pre-treatment of 100 nM RGDS (FIG. 5A) or echistatin (R & D Systems Inc., catalog number 3202/100U) (FIG. 5B) for 10 minutes was performed before irisin treatment. […] RNAs were extracted from the cells and the sclerostin mRNA level was analyzed by qPCR (FIG. 6A) or treated and analyzed as in (FIG. 6A), except that pre-treatment of 10 μM RGDS, RGDyK (Selleck, catalog number S7844), or echistatin was performed for 10 minutes before irisin treatment. […] Sclerostin mRNA level was analyzed by qPCR (FIG. 7A). […] Epididymal fats were collected, RNAs were extracted from the tissues, and mRNA levels of the indicated genes were analyzed by qPCR. […]

B1: irisin: secreted cleaved form of FNDC5; recombinant human/mouse irisin with C-terminal his tag produced in HEK293 cells (protein)
chain: DSPSAPVNVTVRHLKANSAVVSWDVLEDEVVIGFAISQQKKDVRMLRFIQEVNTTTRSCALWDLEEDTEYIVHVQAISIQGQSPASEPVLFKTPREAEKMASKNKDEVTMKE
modifications: left off: small tags and cut ends
notes: secreted cleaved form of FNDC5; recombinant human/mouse irisin with C-terminal his tag produced in HEK293 cells
- sclerostin mRNA in osteocyte-enriched bones: stimulated sclerostin mRNA
- circulating (plasma) sclerostin protein (ELISA): significant increase
- sclerostin mRNA in osteocyte-enriched bones (listed as recombinant irisin): raised the sclerostin mRNA level
